Laboratory results taken from patent US7947468B2, “Methods” (Medical Research Council, priority 2007, dated 2011).

Columns and labels:
[1] = substrate: CC[C@H](C)[C@H](NC(=O)[C@H](CCC(N)=O)NC(=O)[C@H](CCCNC(=N)N)NC(=O)[C@H](CC(C)C)NC(=O)[C@@H](NC(=O)[C@H](CCCCN)NC(=O)[C@H](Cc1ccc(O)cc1)NC(=O)[C@H](CCCCN)NC(=O)[C@H](CC(=O)O)NC(=O)[C@H](CCCNC(=N)N)NC(=O)CNC(=O)[C@H](CC(C)C)NC(=O)[C@@H](N)CCCNC(=N)N)[C@@H](C)O)C(=O)N[C@@H](CCCNC(=N)N)C(=O)N[C@@H](CCC(N)=O)C(=O)O; experiment: Assay of LRRK2 using LRRKtide as substrate (non-mutated enzyme); format: biochemical, human; conditions: other: non-mutated GST-LRRK2[1326-2527], varying LRRKtide, 0.1 mM ATP, 30 min 30° C.
Procedure: (§1) Assay of LRRK2 using LRRKtide as substrate. Assays were set up in a total volume of 50 μl of Buffer A containing 0.5-0.7 μg of either wild type or mutant forms LRRK2, 10 mM MgCl2 and 0.1 mM [γ^32P]-ATP (300 cpm/pmol) in the presence of 300 μM or the indicated concentration of LRRKtide (RLGRDKYKTLRQIRQ; SEQ ID NO:1) peptide substrate. After incubation for 30 min at 30° C., reactions were terminated by applying 40 μl of the reaction mixture onto P81 phosphocellulose paper and phosphorylation of LRRKtide was quantified following washing the P81 phosphocellulose in 50 mM phosphoric acid and Cherenkov counting. One Unit (U) of LRRK2 activity was defined as the amount of enzyme that catalysed the incorporation of 1 nmol of ^32P into LRRKtide. Km and Vmax parameters were determined by performing the assay described above using varying concentration of LRRKtide. The Km and Vmax parameters were calculated using the Graph-Pad prism programme.

[2] = substrate: CC[C@H](C)[C@H](NC(=O)[C@H](CCC(N)=O)NC(=O)[C@H](CCCNC(=N)N)NC(=O)[C@H](CC(C)C)NC(=O)[C@@H](NC(=O)[C@H](CCCCN)NC(=O)[C@H](Cc1ccc(O)cc1)NC(=O)[C@H](CCCCN)NC(=O)[C@H](CC(=O)O)NC(=O)[C@H](CCCNC(=N)N)NC(=O)CNC(=O)[C@H](CC(C)C)NC(=O)[C@@H](N)CCCNC(=N)N)[C@@H](C)O)C(=O)N[C@@H](CCCNC(=N)N)C(=O)N[C@@H](CCC(N)=O)C(=O)O; experiment: Assay of LRRK2 using LRRKtide as substrate (G2019S mutant); format: biochemical, human; conditions: other: GST-LRRK2[1326-2527, G2019S], varying LRRKtide, 0.1 mM ATP, 30 min 30° C.
Procedure: as §1

B1: GST-LRRK2[1326-2527] (Homo sapiens) (protein)
chain: LKKAVPYNRMKLMIVGNTGSGKTTLLQQLMKTKKSDLGMQSATVGIDVKDWPIQIRDKRKRDLVLNVWDFAGREEFYSTHPHFMTQRALYLAVYDLSKGQAEVDAMKPWLFNIKARASSSPVILVGTHLDVSDEKQRKACMSKITKELLNKRGFPAIRDYHFVNATEESDALAKLRKTIINESLNFKIRDQLVVGQLIPDCYVELEKIILSERKNVPIEFPVIDRKRLLQLVRENQLQLDENELPHAVHFLNESGVLLHFQDPALQLSDLYFVEPKWLCKIMAQILTVKVEGCPKHPKGIISRRDVEKFLSKKRKFPKNYMSQYFKLLEKFQIALPIGEEYLLVPSSLSDHRPVIELPHCENSEIIIRLYEMPYFPMGFWSRLINRLLEISPYMLSGRERALRPNRMYWRQGIYLNWSPEAYCLVGSEVLDNHPESFLKITVPSCRKGCILLGQVVDHIDSLMEEWFPGLLEIDICGEGETLLKKWALYSFNDGEEHQKILLDDLMKKAEEGDLLVNPDQPRLTIPISQIAPDLILADLPRNIMLNNDELEFEQAPEFLLGDGSFGSVYRAAYEGEEVAVKIFNKHTSLRLLRQELVVLCHLHHPSLISLLAAGIRPRMLVMELASKGSLDRLLQQDKASLTRTLQHRIALHVADGLRYLHSAMIIYRDLKPHNVLLFTLYPNAAIIAKIADYGIAQYCCRMGIKTSEGTPGFRAPEVARGNVIYNQQADVYSFGLLLYDILTTGGRIVEGLKFPNEFDELEIQGKLPDPVKEYGCAPWPMVEKLIKQCLKENPQERPTSAQVFDILNSAELVCLTRRILLPKNVIVECMVATHHNSRNASIWLGCGHTDRGQLSFLDLNTEGYTSEEVADSRILCLALVHLPVEKESWIVSGTQSGTLLVINTEDGKKRHTLEKMTDSVTCLYCNSFSKQSKQKNFLLVGTADGKLAIFEDKTVKLKGAAPLKILNIGNVSTPLMCLSESTNSTERNVMWGGCGTKIFSFSNDFTIQKLIETRTSQLFSYAAFSDSNIITVVVDTALYIAKQNSPVVEVWDKKTEKLCGLIDCVHFLREVMVKENKESKHKMSYSGRVKTLCLQKNTALWIGTGGGHILLLDLSTRRLIRVIYNFCNSVRVMMTAQLGSLKNVMLVLGYNRKNTEGTQKQKEIQSCLTVWDINLPHEVQNLEKHIEVRKELAEKMRRTSVE
notes: phosphorylated by both non-mutated GST-LRRK2[1326-2527] and GST-LRRK2[1326-2527, G2019S]; made in house; host or cells: HEK 293 cells, pEBG-2T vector
Q: Which Km [1] does the source give for B1 here?
A: 200 µM

B2: GST-LRRK2[1326-2527, G2019S] (Homo sapiens; G2019S) (protein)
chain: LKKAVPYNRMKLMIVGNTGSGKTTLLQQLMKTKKSDLGMQSATVGIDVKDWPIQIRDKRKRDLVLNVWDFAGREEFYSTHPHFMTQRALYLAVYDLSKGQAEVDAMKPWLFNIKARASSSPVILVGTHLDVSDEKQRKACMSKITKELLNKRGFPAIRDYHFVNATEESDALAKLRKTIINESLNFKIRDQLVVGQLIPDCYVELEKIILSERKNVPIEFPVIDRKRLLQLVRENQLQLDENELPHAVHFLNESGVLLHFQDPALQLSDLYFVEPKWLCKIMAQILTVKVEGCPKHPKGIISRRDVEKFLSKKRKFPKNYMSQYFKLLEKFQIALPIGEEYLLVPSSLSDHRPVIELPHCENSEIIIRLYEMPYFPMGFWSRLINRLLEISPYMLSGRERALRPNRMYWRQGIYLNWSPEAYCLVGSEVLDNHPESFLKITVPSCRKGCILLGQVVDHIDSLMEEWFPGLLEIDICGEGETLLKKWALYSFNDGEEHQKILLDDLMKKAEEGDLLVNPDQPRLTIPISQIAPDLILADLPRNIMLNNDELEFEQAPEFLLGDGSFGSVYRAAYEGEEVAVKIFNKHTSLRLLRQELVVLCHLHHPSLISLLAAGIRPRMLVMELASKGSLDRLLQQDKASLTRTLQHRIALHVADGLRYLHSAMIIYRDLKPHNVLLFTLYPNAAIIAKIADYSIAQYCCRMGIKTSEGTPGFRAPEVARGNVIYNQQADVYSFGLLLYDILTTGGRIVEGLKFPNEFDELEIQGKLPDPVKEYGCAPWPMVEKLIKQCLKENPQERPTSAQVFDILNSAELVCLTRRILLPKNVIVECMVATHHNSRNASIWLGCGHTDRGQLSFLDLNTEGYTSEEVADSRILCLALVHLPVEKESWIVSGTQSGTLLVINTEDGKKRHTLEKMTDSVTCLYCNSFSKQSKQKNFLLVGTADGKLAIFEDKTVKLKGAAPLKILNIGNVSTPLMCLSESTNSTERNVMWGGCGTKIFSFSNDFTIQKLIETRTSQLFSYAAFSDSNIITVVVDTALYIAKQNSPVVEVWDKKTEKLCGLIDCVHFLREVMVKENKESKHKMSYSGRVKTLCLQKNTALWIGTGGGHILLLDLSTRRLIRVIYNFCNSVRVMMTAQLGSLKNVMLVLGYNRKNTEGTQKQKEIQSCLTVWDINLPHEVQNLEKHIEVRKELAEKMRRTSVE
notes: made in house; host or cells: HEK 293 cells, pEBG-2T vector
Q: For B2, which Km [2] is on record?
A: 200 µM

Q: What about the Vmax [2] of the same protein?
A: 10 U/mg
